The target of experiment [1] is recombinant soluble integrin αvβ3 (UniProt P06756). Kind of experiment: SPR; soluble αvβ3 immobilized on a CM5 sensor chip by amine coupling; WT and mutant FGF2 two-fold serially diluted from 2 μM in HBS-P buffer (0.01 M Hepes, pH 7.4, 0.15 M NaCl, 0.0005% surfactant P20) with 1 mM Mn2+; 50 μl/min, 1.8 min injection, 3 min dissociation; WT: Kd is the average of Kd values of individual curves; K125E: global fit with a conformation-change model, Kd1 used as Kd. (In SPR one partner is held on a chip, and binding of the other changes the refractive index at the surface.)
UniProt P06756, sequence (P06756 31-1048, chain 1 of 2): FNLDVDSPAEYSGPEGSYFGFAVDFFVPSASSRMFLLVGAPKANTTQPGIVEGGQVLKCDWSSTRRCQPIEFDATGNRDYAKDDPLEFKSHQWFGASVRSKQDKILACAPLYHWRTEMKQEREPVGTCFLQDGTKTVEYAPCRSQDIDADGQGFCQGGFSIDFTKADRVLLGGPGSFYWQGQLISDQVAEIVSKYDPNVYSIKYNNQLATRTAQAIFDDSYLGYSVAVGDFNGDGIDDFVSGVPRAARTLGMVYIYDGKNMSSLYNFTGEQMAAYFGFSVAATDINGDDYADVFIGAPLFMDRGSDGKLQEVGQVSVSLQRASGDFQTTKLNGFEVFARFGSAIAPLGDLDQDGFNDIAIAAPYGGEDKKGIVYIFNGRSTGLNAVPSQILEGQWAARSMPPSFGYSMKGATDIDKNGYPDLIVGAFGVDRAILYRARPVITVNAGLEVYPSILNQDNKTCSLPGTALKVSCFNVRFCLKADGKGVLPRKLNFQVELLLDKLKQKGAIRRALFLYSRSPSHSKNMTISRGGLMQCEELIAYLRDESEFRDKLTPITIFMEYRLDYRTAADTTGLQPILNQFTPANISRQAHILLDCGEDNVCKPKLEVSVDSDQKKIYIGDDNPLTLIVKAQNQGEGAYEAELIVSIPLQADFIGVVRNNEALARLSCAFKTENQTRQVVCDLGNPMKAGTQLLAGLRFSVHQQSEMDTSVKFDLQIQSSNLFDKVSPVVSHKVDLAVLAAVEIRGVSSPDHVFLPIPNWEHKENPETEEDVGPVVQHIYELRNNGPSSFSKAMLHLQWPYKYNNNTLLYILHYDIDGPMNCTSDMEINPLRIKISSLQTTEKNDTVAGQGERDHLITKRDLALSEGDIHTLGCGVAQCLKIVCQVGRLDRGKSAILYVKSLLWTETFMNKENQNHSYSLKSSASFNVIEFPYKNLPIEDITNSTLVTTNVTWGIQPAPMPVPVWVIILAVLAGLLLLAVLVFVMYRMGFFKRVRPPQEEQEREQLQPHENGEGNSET
UniProt P06756, sequence (P05106 27-718, chain 2 of 2, further chain): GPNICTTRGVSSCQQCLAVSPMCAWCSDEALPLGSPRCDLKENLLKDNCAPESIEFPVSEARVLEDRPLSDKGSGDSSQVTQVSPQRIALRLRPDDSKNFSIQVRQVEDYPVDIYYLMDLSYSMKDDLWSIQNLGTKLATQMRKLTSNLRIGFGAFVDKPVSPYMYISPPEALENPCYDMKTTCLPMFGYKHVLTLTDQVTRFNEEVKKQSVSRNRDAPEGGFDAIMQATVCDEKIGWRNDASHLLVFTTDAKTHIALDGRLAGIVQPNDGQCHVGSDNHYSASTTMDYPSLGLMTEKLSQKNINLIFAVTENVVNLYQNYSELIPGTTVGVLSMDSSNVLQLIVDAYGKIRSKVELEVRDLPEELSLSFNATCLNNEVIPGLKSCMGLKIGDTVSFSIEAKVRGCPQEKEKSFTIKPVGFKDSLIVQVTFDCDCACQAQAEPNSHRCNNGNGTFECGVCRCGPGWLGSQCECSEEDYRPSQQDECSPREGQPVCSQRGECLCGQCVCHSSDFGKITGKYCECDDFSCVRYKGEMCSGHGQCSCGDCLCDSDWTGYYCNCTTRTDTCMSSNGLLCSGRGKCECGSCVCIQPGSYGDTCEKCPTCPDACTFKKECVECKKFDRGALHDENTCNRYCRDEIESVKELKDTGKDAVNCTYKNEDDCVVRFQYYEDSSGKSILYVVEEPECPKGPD

Experiment [2] addresses integrin α5β1 on K562 erythroleukaemia cells, P08648;P05556. Kind of experiment: cell adhesion assay (K562 cells). As to conditions: K562 cells (αvβ3-, α5β1+), panel title K562_FGF2_RPMI, read off a plot.

pKd: −log10 of the molar value.

wild-type human FGF2 (fibroblast growth factor 2), sequence (P09038 143-288): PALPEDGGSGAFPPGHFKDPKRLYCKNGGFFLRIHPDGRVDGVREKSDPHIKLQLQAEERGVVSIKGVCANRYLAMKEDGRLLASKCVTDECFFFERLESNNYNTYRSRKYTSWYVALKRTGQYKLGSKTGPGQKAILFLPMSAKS

Take FGF2 K125E mutant (ligand): the Kd1 (A + B <=> AB, first step of the conformation-change model; used by the paper as the binding Kd) in experiment [1] amounted to 1100 nM.

By pKd is commonly meant the negative decadic logarithm of the Kd, by convention in mol/L. On to “wild-type human FGF2 (fibroblast growth factor 2) (ligand)”, for which the negative logarithm of the Kd (pKd) in experiment [1] was 7.11.

“wild-type human FGF2 (fibroblast growth factor 2) K39E”: the response in experiment [2] (FGF2 2.5 µg/ml, parent: est. 63) came out at 27 % adhesion; in experiment [2] (FGF2 5 µg/ml, parent: est. 84), 68 % adhesion; in experiment [2] (FGF2 20 µg/ml, parent: est. 85) it was 89 % adhesion.
